Results as given in US20210388087A1 (Chugai, published 2021).
Residue numbers refer to the chain shown, from its start.

B1: CE115HA000 K52N (antibody, human IgG1, kappa, L234A L235A, N297A, name in Kabat numbering)
heavy: QVQLVESGGGVVQPGRSLRLSCAASGFTFSNAWMHWVRQAPGKGLEWVAQINAKSNNYATYYAESVKGRFTISRDDSKNSLYLQMNSLKTEDTAVYYCRYVHYGAYYGVDAWGQGTTVTVSSASTKGPSVFPLAPSSKSTSGGTAALGCLVKDYFPEPVTVSWNSGALTSGVHTFPAVLQSSGLYSLSSVVTVPSSSLGTQTYICNVNHKPSNTKVDKKVEPKSCDKTHTCPPCPAPEAAGGPSVFLFPPKPKDTLMISRTPEVTCVVVDVSHEDPEVKFNWYVDGVEVHNAKTKPREEQYASTYRVVSVLTVLHQDWLNGKEYKCKVSNKALPAPIEKTISKAKGQPREPQVYTLPPSRCELTKNQVSLSCAVKGFYPSDIAVEWESNGQPENNYKTTPPVLDSDGSFFLVSKLTVDKSRWQQGNVFSCSVMHEALHNHYTQKSLSLSPDYKDDDDK
chain: EPKSSDKTHTCPPCPAPELLGGPSVFLFPPKPKDTLMISRTPEVTCVVVDVSHEDPEVKFNWYVDGVEVHNAKTKPREEQYNSTYRVVSVLTVLHQDWLNGKEYKCKVSNKALPAPIEKTISKAKGQPREPQVCTLPPSRDELTKNQVSLWCLVKGFYPSDIAVEWESNGQPENNYKTTPPVLDSDGSFFLYSKLTVDKSRWQQGNVFSCSVMHEALHNRYTQKSLSLSP
light: DIVMTQSPLSLPVTPGEPASISCRSSQSLVHSNRNTYLHWYQQKPGQAPRLLIYKVSNRFSGVPDRFSGSGSGTDFTLKISRVEAEDVGVYYCGQGTQVPYTFGQGTKLEIKRTVAAPSVFIFPPSDEQLKSGTASVVCLLNNFYPREAKVQWKVDNALQSGNSQESVTEQDSKDSTYSLSSTLTLSKADYEKHKVYACEVTHQGLSSPVTKSFNRGEC
notes: one-arm antibody
B2: CE115HA000 K52R (antibody, human IgG1, kappa, L234A L235A, N297A, name in Kabat numbering)
heavy: B1 heavy with N52R
chain: B1 chain
light: B1 light
notes: one-arm antibody
B3: CE115HA000 K52bQ (antibody, human IgG1, kappa, L234A L235A, N297A, name in Kabat numbering)
heavy: B1 heavy with N52K, K54Q
chain: B1 chain
light: B1 light
notes: one-arm antibody
B4: CE115HA000 N31D (antibody, human IgG1, kappa, L234A L235A, N297A, name in Kabat numbering)
heavy: B1 heavy with N31D, N52K
chain: B1 chain
light: B1 light
notes: one-arm antibody
B5: CE115HA000 K64D (antibody, human IgG1, kappa, L234A L235A, N297A, name in Kabat numbering)
heavy: B1 heavy with N52K, K67D
chain: B1 chain
light: B1 light
notes: one-arm antibody
B6: CE115HA000 K52bS (antibody, human IgG1, kappa, L234A L235A, N297A, name in Kabat numbering)
heavy: B1 heavy with N52K, K54S
chain: B1 chain
light: B1 light
notes: one-arm antibody
B7: CE115HA000 K64A (antibody, human IgG1, kappa, L234A L235A, N297A, name in Kabat numbering)
heavy: B1 heavy with N52K, K67A
chain: B1 chain
light: B1 light
notes: one-arm antibody
B8: CE115HA000 N31S (antibody, human IgG1, kappa, L234A L235A, N297A, name in Kabat numbering)
heavy: B1 heavy with N31S, N52K
chain: B1 chain
light: B1 light
notes: one-arm antibody
B9: CE115HA000 N31I (antibody, human IgG1, kappa, L234A L235A, N297A, name in Kabat numbering)
heavy: B1 heavy with N31I, N52K
chain: B1 chain
light: B1 light
notes: one-arm antibody
B10: CE115HA000 K52bL (antibody, human IgG1, kappa, L234A L235A, N297A, name in Kabat numbering)
heavy: B1 heavy with N52K, K54L
chain: B1 chain
light: B1 light
notes: one-arm antibody
B11: CE115HA000 K52bN (antibody, human IgG1, kappa, L234A L235A, N297A, name in Kabat numbering)
heavy: B1 heavy with N52K, K54N
chain: B1 chain
light: B1 light
notes: one-arm antibody
B12: CE115HA000 K52Y (antibody, human IgG1, kappa, L234A L235A, N297A, name in Kabat numbering)
heavy: B1 heavy with N52Y
chain: B1 chain
light: B1 light
notes: one-arm antibody
B13: CE115HA000 N31Y (antibody, human IgG1, kappa, L234A L235A, N297A, name in Kabat numbering)
heavy: B1 heavy with N31Y, N52K
chain: B1 chain
light: B1 light
notes: one-arm antibody
B14: CE115HA000 N31Q (antibody, human IgG1, kappa, L234A L235A, N297A, name in Kabat numbering)
heavy: B1 heavy with N31Q, N52K
chain: B1 chain
light: B1 light
notes: one-arm antibody
B15: CE115HA000 K64E (antibody, human IgG1, kappa, L234A L235A, N297A, name in Kabat numbering)
heavy: B1 heavy with N52K, K67E
chain: B1 chain
light: B1 light
notes: one-arm antibody
B16: CE115HA000 K52W (antibody, human IgG1, kappa, L234A L235A, N297A, name in Kabat numbering)
heavy: B1 heavy with N52W
chain: B1 chain
light: B1 light
notes: one-arm antibody
B17: CE115HA000 L78I (antibody, human IgG1, kappa, L234A L235A, N297A, name in Kabat numbering)
heavy: B1 heavy with N52K, L81I
chain: B1 chain
light: B1 light
notes: one-arm antibody
B18: CE115HA000 N31K (antibody, human IgG1, kappa, L234A L235A, N297A, name in Kabat numbering)
heavy: B1 heavy with N31K, N52K
chain: B1 chain
light: B1 light
notes: one-arm antibody
B19: CE115HA000 K64Q (antibody, human IgG1, kappa, L234A L235A, N297A, name in Kabat numbering)
heavy: B1 heavy with N52K, K67Q
chain: B1 chain
light: B1 light
notes: one-arm antibody
B20: CE115HA000 N31F (antibody, human IgG1, kappa, L234A L235A, N297A, name in Kabat numbering)
heavy: B1 heavy with N31F, N52K
chain: B1 chain
light: B1 light
notes: one-arm antibody
B21: CE115HA000 K52bR (antibody, human IgG1, kappa, L234A L235A, N297A, name in Kabat numbering)
heavy: B1 heavy with N52K, K54R
chain: B1 chain
light: B1 light
notes: one-arm antibody
B22: CE115HA000 K52bD (antibody, human IgG1, kappa, L234A L235A, N297A, name in Kabat numbering)
heavy: B1 heavy with N52K, K54D
chain: B1 chain
light: B1 light
notes: one-arm antibody
B23: CE115HA000 K52bY (antibody, human IgG1, kappa, L234A L235A, N297A, name in Kabat numbering)
heavy: B1 heavy with N52K, K54Y
chain: B1 chain
light: B1 light
notes: one-arm antibody
B24: CE115HA000 N31A (antibody, human IgG1, kappa, L234A L235A, N297A, name in Kabat numbering)
heavy: B1 heavy with N31A, N52K
chain: B1 chain
light: B1 light
notes: one-arm antibody
B25: CE115HA000 N31R (antibody, human IgG1, kappa, L234A L235A, N297A, name in Kabat numbering)
heavy: B1 heavy with N31R, N52K
chain: B1 chain
light: B1 light
notes: one-arm antibody
B26: CE115HA000 K52S (antibody, human IgG1, kappa, L234A L235A, N297A, name in Kabat numbering)
heavy: B1 heavy with N52S
chain: B1 chain
light: B1 light
notes: one-arm antibody
B27: CE115HA000 N31W (antibody, human IgG1, kappa, L234A L235A, N297A, name in Kabat numbering)
heavy: B1 heavy with N31W, N52K
chain: B1 chain
light: B1 light
notes: one-arm antibody
B28: CE115HA000 K75R (antibody, human IgG1, kappa, L234A L235A, N297A, name in Kabat numbering)
heavy: B1 heavy with N52K, K78R
chain: B1 chain
light: B1 light
notes: one-arm antibody
B29: CE115HA000 N31G (antibody, human IgG1, kappa, L234A L235A, N297A, name in Kabat numbering)
heavy: B1 heavy with N31G, N52K
chain: B1 chain
light: B1 light
notes: one-arm antibody
B30: CE115HA000 K52bA (antibody, human IgG1, kappa, L234A L235A, N297A, name in Kabat numbering)
heavy: B1 heavy with N52K, K54A
chain: B1 chain
light: B1 light
notes: one-arm antibody
B31: CE115HA000 N31H (antibody, human IgG1, kappa, L234A L235A, N297A, name in Kabat numbering)
heavy: B1 heavy with N31H, N52K
chain: B1 chain
light: B1 light
notes: one-arm antibody
B32: CE115HA000 K64S (antibody, human IgG1, kappa, L234A L235A, N297A, name in Kabat numbering)
heavy: B1 heavy with N52K, K67S
chain: B1 chain
light: B1 light
notes: one-arm antibody
B33: CE115HA000 K75T (antibody, human IgG1, kappa, L234A L235A, N297A, name in Kabat numbering)
heavy: B1 heavy with N52K, K78T
chain: B1 chain
light: B1 light
notes: one-arm antibody

biological target: T1, CD3 epsilon homodimer protein (UniProt P07766 23-126); test: SPR, CD3 epsilon homodimer on chip, one-arm antibody as analyte;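 further: surface plasmon resonance at 25 °C with CD3 epsilon homodimer amine-coupled to a CM4 sensor chip, antibody injected as analyte, HBS-EP+ as running buffer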
T1 construct: also called CD3 (CD3 epsilon)
T1 sequence (P07766 23-126): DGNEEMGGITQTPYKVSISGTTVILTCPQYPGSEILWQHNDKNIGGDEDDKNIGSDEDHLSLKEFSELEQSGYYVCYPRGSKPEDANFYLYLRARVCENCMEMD

First: B1
Second: B2
The “KD ratio (KD of CE115HA000/KD of altered form)” value (shortened to “KD ratio”) of the first is higher: 3.29 for the first, 0.8 for the second.

Going from B3 to B4, the “KD ratio” value rises from 0.62 to 1.14.

First: B5
Second: B6
The “KD ratio” value of the first is higher: 0.76 for the first, 0.58 for the second.

Going from B7 to B8, the “KD ratio” value falls from 0.81 to 0.67.

Going from B9 to B10, the “KD ratio” value falls from 0.62 to 0.61.

Compared with B11, B12 is higher in “KD ratio” value: 0.43 for the first, 6.47 for the second.

Going from B13 to B14, the “KD ratio” value falls from 1.1 to 0.94.

First: B15
Second: B16
The “KD ratio” value of the first is lower: 0.84 for the first, 2.69 for the second.

Compared with B17, B18 is lower in “KD ratio” value: 1.08 for the first, 0.97 for the second.

Compared with B19, B20 is higher in “KD ratio” value: 0.87 for the first, 1.24 for the second.

First: B21
Second: B22
The “KD ratio” value of the first is higher: 0.91 for the first, 0.56 for the second.

Going from B23 to B24, the “KD ratio” value rises from 0.61 to 0.96.

Going from B25 to B26, the “KD ratio” value rises from 0.98 to 92.1.

First: B27
Second: B28
The “KD ratio” value of the first is higher: 1.07 for the first, 0.88 for the second.

Compared with B29, B30 is lower in “KD ratio” value: 1.37 for the first, 0.58 for the second.

First: B31
Second: B32
The “KD ratio” value of the first is higher: 0.96 for the first, 0.85 for the second.

B33 was tested, and the “KD ratio” value was 0.75.
